Biological target: the molecule itself
Assay: native gel or EMSA; NativePAGE (Invitrogen) of the synthetic Aβ1-42 preparation, detected with antibody 4G8; guanidine hydrochloride (1:1) used to break down oligomers

B1: synthetic rat Aβ1-42 peptide (peptide, UniProt P08592 672-713, looked up)
peptide: DAEFGHDSGFEVRHQKLVFFAEDVGSNKGAIIGLMVGGVVIA
notes: amyloid-beta 1-42, cut product of the amyloid precursor protein (APP), rat; Oligomer preparation: 100 uM stock in 200 mM HEPES pH 8.5, agitated for 30 min at room temperature; also called amyloid-β 1-42; rodent Aβ_(1-42); source: synthetic peptide; bought: Calbiochem
binding result: binds

— publication PMC7297996, “Alzheimer’s disease-related dysregulation of mRNA translation causes key pathological features with ageing” (Translational Psychiatry, 2020)
